Measurements published in patent US20220235144A1 (QILU PUGET SOUND BIOTHERAPEUTICS, published 2022).

Key:
[1] = target: T1, hSIRPαV2D1 with histidine tag (human); assay: SPR (Biacore 3000), IgG captured, single analyte concentration 50 nM
T1 construct: analyte of the Biacore experiments; also called first immunoglobulin-like domain of human SIRPα variant V2; not shown: histidine tag
Experimental: (§1) Briefly, biosensor analysis was conducted at 25° C. in an HPS-EP buffer (10 mM HEPES, 150 mM NaCl, 3 mM EDTA, 0.005% polysorbate 20, 0.1% bovine serum albumin, pH 7.4) using a Biacore 3000 optical biosensor equipped with a CM5 sensor chip according to the manufacturer's protocol. The auto sampler was maintained at ambient temperature. Goat anti-human IgG capture antibody (Jackson Laboratories; 109-005-098) was immobilized on the four flow cells in each sensor chip using standard amine coupling chemistry. About 8000 resonance units (RU) of this antibody was immobilized on each flow cell. Flow cells 2, 3, and 4 were used to analyze captured anti-SIRPα antibodies (about 250 to 300 RU were captured on each of flow cells 2, 3, and 4), while flow cell 1 was used as the reference flow cell. The analytes tested were hSIRPαV1D1, hSIRPαV2D1, cynomolgus monkey SIRPαV1D1 (cSIRPαV1D1), cSIRPαV2D1, hSIRPβ1D1, and hSIRPγD1, each of which also included a histidine tag. The sequences of cSIRPαV1D1 and cSIRPαV2D2 are provided in SEQ ID NOs: 143 and 142, respectively. To avoid confusion, the differences between the amino acid sequences of cSIRPαV1D1 and cSIRPαV2D1 are not the same as the differences between the amino acid sequences of hSIRPαV1D1 and hSIRPαV2D1. […]
(§2) In a separate experiment, KDs of additional variants of Ab11_G4 and Ab24_G4 were determined for binding to hSIRPαV1D1 and hSIRPαV2D1. […]

[2] = target: T2, hSIRPαV1D1 with histidine tag (human, UniProt P78324 31-147); assay: as above
T2 construct: analyte of the Biacore experiments; also called first immunoglobulin-like domain of human SIRPα variant V1; not shown: histidine tag
Experimental: as §1, §2

T1 sequence (chain, as listed by the source limits assumed): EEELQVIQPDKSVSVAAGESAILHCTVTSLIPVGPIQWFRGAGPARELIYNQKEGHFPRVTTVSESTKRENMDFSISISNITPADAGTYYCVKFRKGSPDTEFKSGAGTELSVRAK
T2 sequence (P78324 31-147 limits assumed): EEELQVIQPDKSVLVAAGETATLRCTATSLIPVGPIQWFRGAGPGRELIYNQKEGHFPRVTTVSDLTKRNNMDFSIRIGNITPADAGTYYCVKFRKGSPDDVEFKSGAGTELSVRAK

Kd [1]: 1.19 nM | Kd [2]: 19.4 nM
B1: Ab24_G1AAA (antibody, human IgG1, kappa, L234A L235A)
heavy: EVQLVESGGGLVKPGGSLRLSCAASGFTFSSYVMSWVRQTPGKGLEWVATISSGGTYTYYPDSVKGRFTLSRDNAKNSLYLQMNSLRAEDTAVYYCASQLTGSEFDYWGQGTTVTVSSASTKGPSVFPLAPSSKSTSGGTAALGCLVKDYFPEPVTVSWNSGALTSGVHTFPAVLQSSGLYSLSSVVTVPSSSLGTQTYICNVNHKPSNTKVDKKVEPKSCDKTHTCPPCPAPEAAGGPSVFLFPPKPKDTLMISRTPEVTCVVVDVSHEDPEVKFNWYVDGVEVHNAKTKPREEQYNSTYRVVSVLTVLHQDWLNGKEYKCKVSNKALAAPIEKTISKAKGQPREPQVYTLPPSREEMTKNQVSLTCLVKGFYPSDIAVEWESNGQPENNYKTTPPVLDSDGSFFLYSKLTVDKSRWQQGNVFSCSVMHEALHNHYTQKSLSLSPGK
light: DIVLTQSPASLAVSLGERATISCRASESVDLYGTSFMHWYQQKPGQPPKLLIYRASNLESGVPDRFSGSGSRTDFTLTINPLQAEDVATYYCHQSSDELPWTFGGGTKVEIKRTVAAPSVFIFPPSDEQLKSGTASVVCLLNNFYPREAKVQWKVDNALQSGNSQESVTEQDSKDSTYSLSSTLTLSKADYEKHKVYACEVTHQGLSSPVTKSFNRGEC
notes: also called Ab24_AAA; 24_AAA
